Experimental data taken from patent publication US20260201058A1.

Columns and labels:
[1] = target: human PD-L1 on GS-C2 cells (cells overexpressing human PD-L1, GenScript, M00613) (human) (UniProt Q9NZQ7); assay: flow cytometry on GS-C2 cells
[2] = target: human PD-L1 on GS-C2 cells (cells overexpressing human PD-L1, GenScript, M00613) (human) (UniProt Q9NZQ7); assay: cell-based or functional assay
[3] = target: monkey PD-L1 (Cyno-PD-L1) on cells (monkey (cyno)); assay: flow cytometry on 293F-cyno PD-L1 cells

Sequence of human PD-L1 on GS-C2 cells (cells overexpressing human PD-L1, GenScript, M00613) (human) (Q9NZQ7 19-290): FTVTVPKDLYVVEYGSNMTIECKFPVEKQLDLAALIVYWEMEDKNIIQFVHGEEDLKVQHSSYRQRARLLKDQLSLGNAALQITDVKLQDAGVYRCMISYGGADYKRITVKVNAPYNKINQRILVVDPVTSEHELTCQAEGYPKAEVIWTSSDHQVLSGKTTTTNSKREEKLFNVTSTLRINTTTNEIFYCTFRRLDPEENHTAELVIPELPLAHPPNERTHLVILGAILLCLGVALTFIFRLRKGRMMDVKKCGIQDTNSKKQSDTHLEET

EC50 [1]: 0.694 nM
EC50 (nM), blocking of T cell PD-1/PD-L1 signaling pathway (GS-C2 cells with Jurket-NFAT-PD1 cells, luciferase) [2]: 2.38 nM
EC50 [3]: 1.34 nM
Substance: control antibody Benchmark-ATE (monoclonal antibody, Atezolizumab)
